Laboratory results from patent US11814435B2, “Therapeutic antibodies and their uses” (PFIZER INC., priority 2015, dated 2023).

Assays:
hBCMA (human BCMA) = target: T1, hBCMA (human BCMA) (Homo sapiens, UniProt Q02223); test: Kinetics and affinity of hBCMA/human IgG interactions by SPR (Bio-Rad Proteon XPR36); format: binding; conditions: human BCMA, 37° C.
T1 sequence (Q02223 1-184): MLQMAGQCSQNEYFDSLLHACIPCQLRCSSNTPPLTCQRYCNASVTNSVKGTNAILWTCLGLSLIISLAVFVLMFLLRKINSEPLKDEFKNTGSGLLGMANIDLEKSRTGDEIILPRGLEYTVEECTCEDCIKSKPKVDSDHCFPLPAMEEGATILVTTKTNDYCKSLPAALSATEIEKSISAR
Summary of the method: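 Kinetic constants and affinity come from fitting double-referenced sensorgrams to a 1:1 Langmuir model with mass transport. Antigen flowed over amine-immobilized IgGs in five rising injections up to 50 nM, two minutes apiece, then a 2 h dissociation; runs at 37° C. or 25° C.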

Cyno BCMA = test: Kinetics and affinity of cyno BCMA/human IgG interactions by SPR (Bio-Rad Proteon XPR36); format: binding, cynomolgus; conditions: 37° C.

Row | Molecule | Kd (hBCMA (human BCMA)) [nM] | ka Human (hBCMA (human BCMA)) [M⁻¹ s⁻¹] | kd Human (hBCMA (human BCMA)) [s⁻¹] | Kd (Cyno BCMA) [nM] | ka Cyno (Cyno BCMA) [M⁻¹ s⁻¹] | kd Cyno (Cyno BCMA) [s⁻¹]
1 | A02_Rd4_0.6 nM_C18: anti-BCMA antibody (antibody, V domains shown) VH: EVQLLESGGGLVQPGGSLRLSCAASGFTFSSYAMNWVRQAPGKGLEWVSAVLDSGGSTYYADSVKGRFTISRDNSKNTLYLQMNSLRAEDTAVYYCARYWPMSLWGQGTLVTVSS VL: EIVLTQSPGTLSLSPGERATLSCRASQSVSELYLAWYQQKPGQAPRLLMYDASIRATGIPDRFSGSGSGTDFTLTISRLEPEDFAVYYCQQYFGWPLTFGQGTKVEIK | 0.048 | 4.73e+06 | 0.000229 | 0.197 | 3.24e+06 | 0.000639
2 | C01_Rd4_6 nM_C24: anti-BCMA antibody (antibody, V domains shown) VH: EVQLLESGGGLVQPGGSLRLSCAASGFTFSSYPMSWVRQAPGKGLEWVSAIGGSGGSLPYADSVKGRFTISRDNSKNTLYLQMNSLRAEDTAVYYCARYWPMDSWGQGTLVTVSS VL: EIVLTQSPGTLSLSPGERATLSCRASQSVSPEYLAWYQQKPGQAPRLLIYDASSRAPGIPDRFSGSGSGTDFTLTISRLEPEDFAVYYCQQYSVWPLTFGQGTKVEIK | – | 7.47e+06 | 0.00348 | – | 3.17e+06 | 0.000891
3 | C01_Rd4_0.6 nM_C27: anti-BCMA antibody (antibody, V domains shown) VH: EVQLLESGGGLVQPGGSLRLSCAASGFTFSSYPMSWVRQAPGKGLEWVSAIGGSGGSLPYADSVKGRFTISRDNSKNTLYLQMNSLRAEDTAVYYCARYWPMDSWGQGTLVTVSS VL: EIVLTQSPGTLSLSPGERATLSCRASQSVSSTYLAWYQQKPGQAPRLLIYDASSRAPGIPDRFSGSGSGTDFTLTISRLEPEDFAVYYCQQYSRWPLTFGQGTKVEIK | – | 1.23e+07 | 0.00374 | – | 3.34e+06 | 0.00285
4 | P5C1_VHVL: anti-BCMA antibody (antibody, V domains shown) VH: EVQLLESGGGLVQPGGSLRLSCAASGFTFSSYPMSWVRQAPGKGLEWVSAIGGSGGSTYYADSVKGRFTISRDNSKNTLYLQMNSLRAEDTAVYYCARYWPMDSWGQGTLVTVSS VL: EIVLTQSPGTLSLSPGERATLSCRASQSVSSTYLAWYQQKPGQAPRLLIYDASSRAPGIPDRFSGSGSGTDFTLTISRLEPEDFAVYYCQQYSTSPLTFGQGTKVEIK | – | 1.16e+07 | 0.0692 | – | 3.53e+06 | 0.0538
5 | A02_Rd4_6 nM_C08: anti-BCMA antibody (antibody, V domains shown) VH: EVQLLESGGGLVQPGGSLRLSCAASGFTFSSYAMNWVRQAPGKGLEWVSAILDSGGSTYYADSVKGRFTISRDNSKNTLYLQMNSLRAEDTAVYYCARYWPMSPWGQGTLVTVSS VL: EIVLTQSPGTLSLSPGERATLSCRASQSVSFLYLAWYQQKPGQAPRLLMYDASIRATGIPDRFSGSGSGTDFTLTISRLEPEDFAVYYCQQYGSWPLTFGQGTKVEIK | 0.188 | 3.92e+06 | 0.000738 | 5.07 | 2.23e+06 | 0.0113
6 | A02_Rd4_6 nM_C04: anti-BCMA antibody (antibody, V domains shown) VH: EVQLLESGGGLVQPGGSLRLSCAASGFTFSSYAMNWVRQAPGKGLEWVSAIMSSGGPLYYADSVKGRFTISRDNSKNTLYLQMNSLRAEDTAVYYCARYWPMALWGQGTLVTVSS VL: EIVLTQSPGTLSLSPGERATLSCRASQSVSALYLAWYQQKPGQAPRLLMYDASIRATGIPDRFSGSGSGTDFTLTISRLEPEDFAVYYCQQYQVWPLTFGQGTKVEIK | 0.135 | 4.47e+06 | 0.000603 | 0.381 | 2.18e+06 | 0.000831
7 | C01_Rd4_6 nM_C10: anti-BCMA antibody (antibody, V domains shown) VH: EVQLLESGGGLVQPGGSLRLSCAASGFTFSSYPMSWVRQAPGKGLEWVSAIGGSGGSLPYADSVKGRFTISRDNSKNTLYLQMNSLRAEDTAVYYCARYWPMDSWGQGTLVTVSS VL: EIVLTQSPGTLSLSPGERATLSCRASQSVSSVYLAWYQQKPGQAPRLLIYDASSRAPGIPDRFSGSGSGTDFTLTISRLEPEDFAVYYCQQYSTWPLTFGQGTKVEIK | – | 1.31e+07 | 0.00212 | – | 4.44e+06 | 0.00219
8 | A02_Rd4_0.6 nM_C10: anti-BCMA antibody (antibody, V domains shown) VH: EVQLLESGGGLVQPGGSLRLSCAASGFTFSSYAMNWVRQAPGKGLEWVSAISGWGGSLPYADSVKGRFTISRDNSKNTLYLQMNSLRAEDTAVYYCARYWPMDSWGQGTLVTVSS VL: EIVLTQSPGTLSLSPGERATLSCRASQSVSAQYLAWYQQKPGQAPRLLMYDASIRATGIPDRFSGSGSGTDFTLTISRLEPEDFAVYYCQQYQRWPLTFGQGTKVEIK | – | 2.3e+06 | 0.000296 | – | 883000 | 0.00163
9 | A02_Rd4_6 nM_C05: anti-BCMA antibody (antibody, V domains shown) VH: EVQLLESGGGLVQPGGSLRLSCAASGFTFSSYAMNWVRQAPGKGLEWVSAIFASGGSTYYADSVKGRFTISRDNSKNTLYLQMNSLRAEDTAVYYCARYWPMTPWGQGTLVTVSS VL: EIVLTQSPGTLSLSPGERATLSCRASQSVSSSYLAWYQQKPGQAPRLLMYDASIRATGIPDRFSGSGSGTDFTLTISRLEPEDFAVYYCQQYQRWPLTFGQGTKVEIK | – | 3.1e+06 | 0.000308 | – | 1.36e+06 | 0.00129
10 | A02_Rd4_0.6 nM_C13: anti-BCMA antibody (antibody, V domains shown) VH: EVQLLESGGGLVQPGGSLRLSCAASGFTFSSYAMNWVRQAPGKGLEWVSAISDSGGYRYYADSVKGRFTISRDNSKNTLYLQMNSLRAEDTAVYYCARYWPMSLWGQGTLVTVSS VL: EIVLTQSPGTLSLSPGERATLSCRASQSVSSSYWAWYQQKPGQAPRLLMYDASIRATGIPDRFSGSGSGTDFTLTISRLEPEDFAVYYCQQYESWPLTFGQGTKVEIK | – | 8.53e+06 | 0.000566 | – | 2.29e+06 | 0.00128
11 | C01_Rd4_6 nM_C26: anti-BCMA antibody (antibody, V domains shown) VH: EVQLLESGGGLVQPGGSLRLSCAASGFTFSSYPMSWVRQAPGKGLEWVSAIGGSGGSLPYADSVKGRFTISRDNSKNTLYLQMNSLRAEDTAVYYCARYWPMDSWGQGTLVTVSS VL: EIVLTQSPGTLSLSPGERATLSCRASQSVSALYLAWYQQKPGQAPRLLIYDASSRAPGIPDRFSGSGSGTDFTLTISRLEPEDFAVYYCQQYSAWPLTFGQGTKVEIK | – | 1.5e+07 | 0.00136 | – | 4.75e+06 | 0.00199
12 | A02_Rd4_6 nM_C10: anti-BCMA antibody (antibody, V domains shown) VH: EVQLLESGGGLVQPGGSLRLSCAASGFTFSSYAMNWVRQAPGKGLEWVSAISDSGGSCWYADSVKGRFTISRDNSKNTLYLQMNSLRAEDTAVYYCARYWPMTPWGQGTLVTVSS VL: EIVLTQSPGTLSLSPGERATLSCRASQSVEMSYLAWYQQKPGQAPRLLMYDASIRATGIPDRFSGSGSGTDFTLTISRLEPEDFAVYYCQQYAHWPLTFGQGTKVEIK | – | 4.51e+06 | 0.000315 | – | 1.9e+06 | 0.000898
13 | A02_Rd4_0.6 nM_C26: anti-BCMA antibody (antibody, V domains shown) VH: EVQLLESGGGLVQPGGSLRLSCAASGFTFSSYAMNWVRQAPGKGLEWVSAILMSGGSTYYADSVKGRFTISRDNSKNTLYLQMNSLRAEDTAVYYCARYWPMSLWGQGTLVTVSS VL: EIVLTQSPGTLSLSPGERATLSCGPSQSVSSSYLAWYQQKPGQAPRLLMYDASIRATGIPDRFSGSGSGTDFTLTISRLEPEDFAVYYCQQYQSWPLTFGQGTKVEIK | – | 7.26e+06 | 0.000443 | – | 2.71e+06 | 0.00256
